Measured values taken from PMC3229090 (Biochemistry, 2011).
Ends that are not written are not given here.

How the values were obtained:
HeLa cells = experiment: HeLa proliferation assay; assay type: cell-based, Human; conditions: pH 6.0 and 7.4, treatment 3 hrs, data not shown
[1] = Reverse phase C18 HPLC elution as measure of hydrophobicity; assay type: physicochemical; conditions: reverse phase C18, 30 min gradient from 99:1 A/B to 70:30 A/B, water/acetonitrile + 0.05% TFA, flow rate 1 ml/min
[2] = measured previously; ref [20]; cited from earlier work

| Substance | Antiproliferative effect at either pH (HeLa cells) | HPLC elution time of phallotoxins [1] [min] | Log P of phalloidin-rhodamine [2] |
| --- | --- | --- | --- |
| phallacidin (AWLVDCP; also: cyclic peptide, R1 = H, R2 = COOH) | do not demonstrate an antiproliferative effect | 30.3 | – |
| phalloidin-rhodamine | – | – | -0.05 |
